Data from article PMC2975025 (Developmental cell, 2010).
Changes are numbered by the printed parent chain.

T1: KR-mutant CHC hub (K1163E and R1165D) (bovine, UniProt P49951 1074-1675, K1163E | R1165D)
T1 sequence (looked up): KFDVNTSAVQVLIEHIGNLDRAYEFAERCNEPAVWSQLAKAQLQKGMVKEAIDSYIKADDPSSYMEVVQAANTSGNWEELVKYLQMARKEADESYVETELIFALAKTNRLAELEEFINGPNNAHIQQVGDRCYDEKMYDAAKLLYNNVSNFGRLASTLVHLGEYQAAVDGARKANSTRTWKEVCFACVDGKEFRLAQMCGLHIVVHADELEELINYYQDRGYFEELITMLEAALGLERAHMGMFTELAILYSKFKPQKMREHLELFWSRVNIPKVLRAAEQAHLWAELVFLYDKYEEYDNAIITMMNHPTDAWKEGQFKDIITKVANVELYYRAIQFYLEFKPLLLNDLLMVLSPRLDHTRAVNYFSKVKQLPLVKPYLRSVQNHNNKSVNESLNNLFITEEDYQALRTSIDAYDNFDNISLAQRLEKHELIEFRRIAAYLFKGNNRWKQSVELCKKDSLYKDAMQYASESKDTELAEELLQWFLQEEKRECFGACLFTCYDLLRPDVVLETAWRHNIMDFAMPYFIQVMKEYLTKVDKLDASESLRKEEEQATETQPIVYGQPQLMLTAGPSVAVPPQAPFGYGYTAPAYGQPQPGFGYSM

B1: Bovine clathrin heavy chain residues 1074–1675 (hub), wild type (domain or fragment, UniProt P49951 1074-1675, looked up)
chain: T1 sequence (looked up) with E90K, D92R
B2: Human neuronal LCb, his-tagged fusion protein, wild type (natural protein, UniProt P09497 1-229, looked up)
chain: MADDFGFFSSSESGAPEAAEEDPAAAFLAQQESEIAGIENDEGFGAPAGSHAAPAQPGPTSGAGSEDMGTTVNGDVFQEANGPADGYAAIAQADRLTQEPESIRKWREEQRKRLQELDAASKVTEQEWREKAKKDLEEWNQRQSEQVEKNKINNRIADKAFYQQPDADIIGYVASEEAFVKESKEETPGTEWEKVAQLCDFNPKSSKQCKDVSRLRSVLMSLKQTPLSR

Key:
crystal structure = molecular target: the molecule itself; assay: crystal structure
[1] = molecular target: B1; assay: SPR
[2] = molecular target: T1, KR-mutant CHC hub (K1163E and R1165D); assay: SPR

| Kd [1] | Kd [2] | Binder | stoichiometry N (crystal structure) |
| --- | --- | --- | --- |
|  |  | B1 | 3 |
| 25 nM | 59.1 nM | B2 |  |
